Reference: patent publication US6512097

Target: T1, c-erbB-2 ECD with a Ser-Gly-His6 C-terminal fusion (UniProt P04626 23-652)
T1 construct: extracellular domain; Expressed from CHO cells, IMAC purified; coupled to a CM5 chip, coated on plates, or biotinylated with NHS-LC-biotin; also called c-erbB-2 extracellular domain; biotinylated c-erbB-2 ECD
Test: SPR BIAcore

| Binder | Kd [nM] | Kd (mutant)/Kd (C6.5) | koff [s⁻¹] | kon [M⁻¹ s⁻¹] |
| --- | --- | --- | --- | --- |
| C6.5C100S/C100eS (scFv, C6.5 VH CDR3 scan mutant; Kabat numbering) scFv: QVQLLQSGAELKKPGESLKISCKGSGYSFTSYWIAWVRQMPGKGLEYMGLIYPGDSDTKYSPSFQGQVTISVDKSVSTAYLQWSSLKPSDSAVYFCARHDVGYSSSSNSAKWPEYFQHWGQGTLVTVSSGGGGSGGGGSGGGGSQSVLTQPPSVSAAPGQKVTISCSGSSSNIGNNYVSWYQQLPGTAPKLLIYGHTNRPAGVPDRFSGSKSGTSASLAISGFRSEDEADYYCAAWDDSLSGWVFGGGTKLTVLG | 280 | 17.5 | 0.138 | 500000 |
| C6.5D96A (scFv, C6.5 VH CDR3 scan mutant; Kabat numbering) scFv: QVQLLQSGAELKKPGESLKISCKGSGYSFTSYWIAWVRQMPGKGLEYMGLIYPGDSDTKYSPSFQGQVTISVDKSVSTAYLQWSSLKPSDSAVYFCARHAVGYCSSSNCAKWPEYFQHWGQGTLVTVSSGGGGSGGGGSGGGGSQSVLTQPPSVSAAPGQKVTISCSGSSSNIGNNYVSWYQQLPGTAPKLLIYGHTNRPAGVPDRFSGSKSGTSASLAISGFRSEDEADYYCAAWDDSLSGWVFGGGTKLTVLG | 45 | 2.8 | 0.01 | 220000 |
| C6.5F100lA (scFv, C6.5 VH CDR3 scan mutant; Kabat numbering; also called F1001A) scFv: QVQLLQSGAELKKPGESLKISCKGSGYSFTSYWIAWVRQMPGKGLEYMGLIYPGDSDTKYSPSFQGQVTISVDKSVSTAYLQWSSLKPSDSAVYFCARHDVGYCSSSNCAKWPEYAQHWGQGTLVTVSSGGGGSGGGGSGGGGSQSVLTQPPSVSAAPGQKVTISCSGSSSNIGNNYVSWYQQLPGTAPKLLIYGHTNRPAGVPDRFSGSKSGTSASLAISGFRSEDEADYYCAAWDDSLSGWVFGGGTKLTVLG | 454 | 28.4 | 0.05 | 110000 |
| C6.5H102A (scFv, C6.5 VH CDR3 scan mutant; Kabat numbering) scFv: QVQLLQSGAELKKPGESLKISCKGSGYSFTSYWIAWVRQMPGKGLEYMGLIYPGDSDTKYSPSFQGQVTISVDKSVSTAYLQWSSLKPSDSAVYFCARHDVGYCSSSNCAKWPEYFQAWGQGTLVTVSSGGGGSGGGGSGGGGSQSVLTQPPSVSAAPGQKVTISCSGSSSNIGNNYVSWYQQLPGTAPKLLIYGHTNRPAGVPDRFSGSKSGTSASLAISGFRSEDEADYYCAAWDDSLSGWVFGGGTKLTVLG | 19 | 1.2 | 0.011 | 590000 |
| C6.5K100gA (scFv, C6.5 VH CDR3 scan mutant; Kabat numbering) scFv: QVQLLQSGAELKKPGESLKISCKGSGYSFTSYWIAWVRQMPGKGLEYMGLIYPGDSDTKYSPSFQGQVTISVDKSVSTAYLQWSSLKPSDSAVYFCARHDVGYCSSSNCAAWPEYFQHWGQGTLVTVSSGGGGSGGGGSGGGGSQSVLTQPPSVSAAPGQKVTISCSGSSSNIGNNYVSWYQQLPGTAPKLLIYGHTNRPAGVPDRFSGSKSGTSASLAISGFRSEDEADYYCAAWDDSLSGWVFGGGTKLTVLG | 9.8 | 0.6 | 0.0042 | 430000 |
| C6.5N100dA (scFv, C6.5 VH CDR3 scan mutant; Kabat numbering) scFv: QVQLLQSGAELKKPGESLKISCKGSGYSFTSYWIAWVRQMPGKGLEYMGLIYPGDSDTKYSPSFQGQVTISVDKSVSTAYLQWSSLKPSDSAVYFCARHDVGYCSSSACAKWPEYFQHWGQGTLVTVSSGGGGSGGGGSGGGGSQSVLTQPPSVSAAPGQKVTISCSGSSSNIGNNYVSWYQQLPGTAPKLLIYGHTNRPAGVPDRFSGSKSGTSASLAISGFRSEDEADYYCAAWDDSLSGWVFGGGTKLTVLG | 29 | 1.8 | 0.012 | 410000 |
| C6.5P100iA (scFv, C6.5 VH CDR3 scan mutant; Kabat numbering) scFv: QVQLLQSGAELKKPGESLKISCKGSGYSFTSYWIAWVRQMPGKGLEYMGLIYPGDSDTKYSPSFQGQVTISVDKSVSTAYLQWSSLKPSDSAVYFCARHDVGYCSSSNCAKWAEYFQHWGQGTLVTVSSGGGGSGGGGSGGGGSQSVLTQPPSVSAAPGQKVTISCSGSSSNIGNNYVSWYQQLPGTAPKLLIYGHTNRPAGVPDRFSGSKSGTSASLAISGFRSEDEADYYCAAWDDSLSGWVFGGGTKLTVLG | 10 | 0.6 | 0.011 | 1.05e+06 |
| C6.5Q101A (scFv, C6.5 VH CDR3 scan mutant; Kabat numbering) scFv: QVQLLQSGAELKKPGESLKISCKGSGYSFTSYWIAWVRQMPGKGLEYMGLIYPGDSDTKYSPSFQGQVTISVDKSVSTAYLQWSSLKPSDSAVYFCARHDVGYCSSSNCAKWPEYFAHWGQGTLVTVSSGGGGSGGGGSGGGGSQSVLTQPPSVSAAPGQKVTISCSGSSSNIGNNYVSWYQQLPGTAPKLLIYGHTNRPAGVPDRFSGSKSGTSASLAISGFRSEDEADYYCAAWDDSLSGWVFGGGTKLTVLG | 8.2 | 0.5 | 0.0098 | 1.2e+06 |
| C6.5S100aA (scFv, C6.5 VH CDR3 scan mutant; Kabat numbering) scFv: QVQLLQSGAELKKPGESLKISCKGSGYSFTSYWIAWVRQMPGKGLEYMGLIYPGDSDTKYSPSFQGQVTISVDKSVSTAYLQWSSLKPSDSAVYFCARHDVGYCASSNCAKWPEYFQHWGQGTLVTVSSGGGGSGGGGSGGGGSQSVLTQPPSVSAAPGQKVTISCSGSSSNIGNNYVSWYQQLPGTAPKLLIYGHTNRPAGVPDRFSGSKSGTSASLAISGFRSEDEADYYCAAWDDSLSGWVFGGGTKLTVLG | 28 | 1.8 | 0.013 | 470000 |
| C6.5S100bA (scFv, C6.5 VH CDR3 scan mutant; Kabat numbering) scFv: QVQLLQSGAELKKPGESLKISCKGSGYSFTSYWIAWVRQMPGKGLEYMGLIYPGDSDTKYSPSFQGQVTISVDKSVSTAYLQWSSLKPSDSAVYFCARHDVGYCSASNCAKWPEYFQHWGQGTLVTVSSGGGGSGGGGSGGGGSQSVLTQPPSVSAAPGQKVTISCSGSSSNIGNNYVSWYQQLPGTAPKLLIYGHTNRPAGVPDRFSGSKSGTSASLAISGFRSEDEADYYCAAWDDSLSGWVFGGGTKLTVLG | 47 | 2.9 | 0.016 | 340000 |
| C6.5S100cA (scFv, C6.5 VH CDR3 scan mutant; Kabat numbering) scFv: QVQLLQSGAELKKPGESLKISCKGSGYSFTSYWIAWVRQMPGKGLEYMGLIYPGDSDTKYSPSFQGQVTISVDKSVSTAYLQWSSLKPSDSAVYFCARHDVGYCSSANCAKWPEYFQHWGQGTLVTVSSGGGGSGGGGSGGGGSQSVLTQPPSVSAAPGQKVTISCSGSSSNIGNNYVSWYQQLPGTAPKLLIYGHTNRPAGVPDRFSGSKSGTSASLAISGFRSEDEADYYCAAWDDSLSGWVFGGGTKLTVLG | 24 | 1.5 | 0.011 | 450000 |
| C6.5V97A (scFv, C6.5 VH CDR3 scan mutant; Kabat numbering) scFv: QVQLLQSGAELKKPGESLKISCKGSGYSFTSYWIAWVRQMPGKGLEYMGLIYPGDSDTKYSPSFQGQVTISVDKSVSTAYLQWSSLKPSDSAVYFCARHDAGYCSSSNCAKWPEYFQHWGQGTLVTVSSGGGGSGGGGSGGGGSQSVLTQPPSVSAAPGQKVTISCSGSSSNIGNNYVSWYQQLPGTAPKLLIYGHTNRPAGVPDRFSGSKSGTSASLAISGFRSEDEADYYCAAWDDSLSGWVFGGGTKLTVLG | 48 | 3 | 0.015 | 310000 |
